Target: Rabbit skeletal actin, filamentous (pre-formed actin filament) (rabbit) (UniProt P68135)
Assay: single-filament TIRF microscopy with microfluidics (kymographs); actin filaments tethered at one point through biotinylated spectrin-actin seeds on streptavidin/PLL-PEG-biotin coverslip, stained with 0.15 uM Alexa Fluor 488-phalloidin; AF647-Tpm1.1 flowed in at various concentrations (62.5, 250, 500 nM shown), then washed with buffer only for dissociation; buffer F (5 mM Tris pH 7.8, 100 mM KCl, 1 mM MgCl2, 0.2 mM ATP, 0.2 mM EGTA, 0.1 mM CaCl2, 10 mM DTT, 1 mg/mL BSA)

Which elongation rate of the Tpm1.1 strand on actin per feed concentration, towards the barbed end (nm s^-1 nM^-1) does the source give for “Murine tropomyosin isoform Tpm1.1, labelled with Alexa Fluor 647 at Cys-190 (natural protein)” here?
The elongation rate of the Tpm1.1 strand on actin per feed concentration, towards the barbed end (nm s^-1 nM^-1) was 0.88.

What about the elongation rate of the Tpm1.1 strand on actin per feed concentration, towards the pointed end (nm s^-1 nM^-1) of the same substance?
The elongation rate of the Tpm1.1 strand on actin per feed concentration, towards the pointed end (nm s^-1 nM^-1) was 1.1.

What about the nucleation time tnuc (Kaplan-Meier estimate, filament of Fig 3C, 62.5 nM Tpm1.1) of the same substance?
Its nucleation time tnuc (Kaplan-Meier estimate, filament of Fig 3C, 62.5 nM Tpm1.1) is 1370 s.

And the weighted average elongation rate on one filament, towards the barbed end?
The weighted average elongation rate on one filament, towards the barbed end was 136 nm/s.

And the weighted average elongation rate on one filament, towards the pointed end?
Its weighted average elongation rate on one filament, towards the pointed end is 104 nm/s.

Reference: publication PMC6287813
